Numbered stars: 1 amine (or outer) side, 2 acyl side, 3 side chain; on linkers, the order of the positions; unused ones are H or OH. Bridge positions count the residues as written; N and C are the ends. Square brackets hold non-standard residues; d marks the D form. Primed or numbered codes have the meaning given here. Side chains are listed from the residue outwards. Ends that are not written are not given here. * marks the point of attachment. PEG3″ = NH2CH2CH2(OCH2CH2)3CH2CH2CO2H (PEG3 linker), NCCOCCOCCOCCCCC(=O)*; Ida = iminodiacetic acid, O=C(CN(CC(=O)[*:3])[*:1])[*:2]; γGlu = O=C(O)[C@H](CCC(=O)[*:2])N[*:1]; Palmitoyl = CCCCCCCCCCCCCCCC(=O)*; dapa = diaminopropionic acid; Lauroyl = CCCCCCCCCCCC(=O)*; Decanoyl = CCCCCCCCCC(=O)*; Isovaleryl = CC(C)CC(=O)*; Octanoyl = CCCCCCCC(=O)*; Albu = not defined here; Dap = NC[C@H](N)C(=O)O; Hexanoyl = CCCCCC(=O)*; Butyryl = CCCC(=O)*
T1: human ferroportin (SLC40A1) fused in frame with GFP, stably expressed in HEK293 cells (human, UniProt Q9NP59 1-571)
T1 sequence (looked up): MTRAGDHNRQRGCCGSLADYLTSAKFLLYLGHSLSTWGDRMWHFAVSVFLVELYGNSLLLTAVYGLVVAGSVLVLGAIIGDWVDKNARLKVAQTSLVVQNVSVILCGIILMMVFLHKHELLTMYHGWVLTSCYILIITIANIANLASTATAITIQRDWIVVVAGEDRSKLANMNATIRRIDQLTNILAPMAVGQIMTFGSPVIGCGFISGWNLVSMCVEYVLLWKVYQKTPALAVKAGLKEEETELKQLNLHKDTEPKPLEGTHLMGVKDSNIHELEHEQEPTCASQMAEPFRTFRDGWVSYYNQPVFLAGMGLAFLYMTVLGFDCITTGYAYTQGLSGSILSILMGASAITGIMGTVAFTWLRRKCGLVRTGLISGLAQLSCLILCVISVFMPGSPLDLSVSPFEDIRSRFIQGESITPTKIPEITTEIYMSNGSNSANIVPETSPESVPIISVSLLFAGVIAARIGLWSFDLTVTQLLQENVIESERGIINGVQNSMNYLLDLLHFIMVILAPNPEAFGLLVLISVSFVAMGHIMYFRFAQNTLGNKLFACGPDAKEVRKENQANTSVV


Target: T1, human ferroportin (SLC40A1) fused in …
Test: cell-based or functional assay

Row | Potency EC50 (nM), ferroportin-GFP internalization/degradation | Binder
1 | 60 nM | Isovaleryl-ATHFPCIKFGPRSKGWVCK-NH2 (disulfide 6-18 (inferred)) [Isovaleric acid-ATHFPCIKFGPRSKGWVCK-NH2]
2 | > 10000 nM | H-DTHFPIAIFAICI-NH2 [Hy-DTHFPIAIFAICI-NH2]
3 | > 1000 nM | Palmitoyl-DTHFPCIKFGPRSKGWVCK-NH2 (disulfide 6-18 (inferred)) [Palm-DTHFPCIKFGPRSKGWVCK-NH2]
4 | 355 nM | [Ida]THFPCIKFEPRSKGWVCK(Butyryl)-NH2 (disulfide 6-18 (inferred)) [[Ida]-THFPCIKFEPRSKGWVC-K(butyric acid)-NH2]
5 | > 500 nM | Isovaleryl-DTHAPCIKFGPRSKGWVCK-NH2 (not fully specified (bridges); cysteine pairing not given here) [Isovaleric acid-DTHAPCIKFGPRSKGWVCK-NH2]
6 | 4 nM | Isovaleryl-DTHFPCIKFEPRSKK([γGlu-Palmitoyl])CK-NH2 (disulfide 6-16 (inferred)) [Isovaleric acid-DTHFPCIKFEPRSK-K(isoglu-Palm)-CK-NH2]
7 | 21 nM | DTHFPCIKFKPRSKGWVC (N-terminal isovaleric acid; K(hexanoic acid) at Lys 10; C-terminal amide) [Isovaleric acid-DTHFPCIKF-K(hexanoic acid)-PRSKGWVC-NH2]
8 | > 10000 nM | Isovaleryl-DTHAPCIKFEPRSKGWECK-NH2 (not fully specified (bridges); cysteine pairing not given here) [Isovaleric acid-DTHAPCIKFEPRSKGWECK-NH2]
9 | 29 nM | DTHFPCIKFKPRSKGWVC (N-terminal isovaleric acid; K(Ac) at Lys 10; C-terminal amide) [Isovaleric acid-DTHFPCIKF-K(Ac)-PRSKGWVC-NH2]
10 | 4 nM | DTHFPCIKFEPRSKGCKK (N-terminal isovaleric acid; K(isoglu-Palm) at Lys 18; C-terminal amide) [Isovaleric acid-DTHFPCIKFEPRSKGCK-K(isoglu-Palm)-NH2]
11 | 10 nM | Isovaleryl-DTHFPCIKFEPRSKGCK([Dap-Palmitoyl])K-NH2 (disulfide 6-16 (inferred)) [Isovaleric acid-DTHFPCIKFEPRSKGC-K(dapa-Palm)-K-NH2]
12 | 15 nM | Isovaleryl-DTHFPCIKFEPRSKKWVCK-NH2 (disulfide 6-18 (inferred)) [Isovaleric acid-DTHFPCIKFEPRSKKWVCK-NH2]
13 | > 10000 nM | H-DTHFPIAIICI-NH2 [Hy-DTHFPIAIICI-NH2]
14 | > 10000 nM | H-DTHFPIAIFICI-NH2 [Hy-DTHFPIAIFICI-NH2]
15 | > 10000 nM | H-DTHICIAIF-NH2 [Hy-DTHICIAIF-NH2]
16 | 129 nM | [Ida]THFPCIKFEPRSKGWVCK(Octanoyl)-NH2 (not fully specified (bridges); cysteine pairing not given here) [[Ida]-THFPCIKFEPRSKGWVC-K(octanoic acid)-NH2]
17 | 52 nM | [Ida]THFPCIKFEPRSKGWVCK(Lauroyl)-NH2 (disulfide 6-18 (inferred)) [[Ida]-THFPCIKFEPRSKGWVC-K(lauric acid)-NH2]
18 | 17 nM | Isovaleryl-DTHFPCIK([dapa-Palmitoyl])FEPRSKGCK-NH2 (not fully specified (bridges); cysteine pairing not given here) [Isovaleric acid-DTHFPCI-K(dapa-Palm)-FEPRSKGCK-NH2]
19 | 6 nM | DTHFPCIKFKPRSKGWECK (N-terminal isovaleric acid; K(isoGlu-Palm) at Lys 10; C-terminal amide) [Isovaleric acid-DTHFPCIKFK(isoGlu-Palm)-PRSKGWECK-NH2]
20 | > 10000 nM | H-DTHFPIAIFAAGICI-NH2 [Hy-DTHFPIAIFAAGICI-NH2]
21 | 480 nM | {4,4‑5,5‑6,6,6‑heptafluorohexanoic acid}-DTHFPCIKFGPRSKGWVCK-NH2 (disulfide 6-18 (inferred)) [4,4-5,5-6,6,6-Heptafluorohexanoic acid-DTHFPCIKFGPRSKGWVCK-NH2]
22 | 10 nM | DTHFPCIKFKPRSKGWVC (not fully specified; N-terminal isovaleric acid; K(lauric acid) at Lys 10; C-terminal amide) [Isovaleric acid-DTHFPCIKF-K(lauric acid)-PRSKGWVC-NH2]

The remaining lines, values behind:

Row | Binder | Potency EC50 (nM), ferroportin-GFP internalization/degradation
23 | Isovaleryl-DTHFPCIKFEPHSK(Albu)GCK-NH2 (not fully specified (bridges); cysteine pairing not given here; reading uncertain) [Isovaleric acid-DTHFPCIKFEPHS-K(Albu)-GCK-NH2] | 6 nM
24 | Isovaleryl-DTHFPCIKAGPRSKGWVCK-NH2 (not fully specified (bridges); cysteine pairing not given here) [Isovaleric acid-DTHFPCIKAGPRSKGWVCK-NH2] | 50 nM
25 | Isovaleryl-DTHFPCIKFEPRSK([Dap-Palmitoyl])GCK-NH2 (not fully specified (bridges); cysteine pairing not given here) [Isovaleric acid-DTHFPCIKFEPRS-K(dapa-Palm)-GCK-NH2] | 7 nM
26 | [Ida]THFPCIKFEPRSKGWVCK(Decanoyl)-NH2 (disulfide 6-18 (inferred)) [[Ida]-THFPCIKFEPRSKGWVC-K(decanoic acid)-NH2] | 116 nM
27 | [Ida]THFPCIKFEPRSKGWVCK(Hexanoyl)-NH2 (disulfide 6-18 (inferred)) [[Ida]-THFPCIKFEPRSKGWVC-K(hexanoic acid)-NH2] | 191 nM
28 | DTHFPCIKFKPRSKGWVC (not fully specified; N-terminal isovaleric acid; K(mysteric acid) at Lys 10; C-terminal amide) [Isovaleric acid-DTHFPCIKF-K(mysteric acid)-PRSKGWVC-NH2] | 7 nM
29 | DTHFPCIKFKPRSKGWVC (N-terminal isovaleric acid; K(butyric acid) at Lys 10; C-terminal amide) [Isovaleric acid-DTHFPCIKF-K(butyric acid)-PRSKGWVC-NH2] | 37 nM
30 | DTHFPCIKFKPRSKGWVC (not fully specified; N-terminal isovaleric acid; K(octanoic acid) at Lys 10; C-terminal amide) [Isovaleric acid-DTHFPCIKF-K(octanoic acid)-PRSKGWVC-NH2] | 30 nM
31 | H-DTHFPIAICI-NH2 [Hy-DTHFPIAICI-NH2] | > 10000 nM
32 | Isovaleryl-DTHFPCIKFEPK([Dap-Palmitoyl])SKGCK-NH2 (not fully specified (bridges); cysteine pairing not given here) [Isovaleric acid-DTHFPCIKFEP-K(dapa-Palm)-SKGCK-NH2] | 10 nM
33 | Isovaleryl-DTHFPCIKFEPK([γGlu-Palmitoyl])SKGWECK-NH2 (not fully specified (bridges); cysteine pairing not given here) [Isovaleric acid-DTHFPCIKFEPK(isoGlu-Palm)-SKGWECK-NH2] | 8 nM
34 | Isovaleryl-DTHFPCIKFEPK([γGlu-Palmitoyl])SKGCK-NH2 (not fully specified (bridges); cysteine pairing not given here) [Isovaleric acid-DTHFPCIKFEP-K(isoglu-Palm)-SKGCK-NH2] | 5 nM
35 | H-DTHFPIICI-NH2 [Hy-DTHFPIICI-NH2] | > 10000 nM
36 | H-DTHFPIAIFAAICI-NH2 [Hy-DTHFPIAIFAAICI-NH2] | > 10000 nM
37 | [Ida]THFPCIKFEPRSKGWVCK(Ac)-NH2 (disulfide 6-18 (inferred)) [[Ida]-THFPCIKFEPRSKGWVC-K(Ac)-NH2] | 502 nM
38 | Isovaleryl-HFPCIKFEPRSKGWVCK(Octanoyl)-NH2 (disulfide 4-16 (inferred)) [Isovaleric acid-HFPCIKFEPRSKGWVC-K(octanoic acid)-NH2] | > 300 nM
39 | H-DTHFPCIKFGPRSKGWVCK-NH2 (disulfide 6-18 (inferred)) [Hy-DTHFPCIKFGPRSKGWVCK-NH2] | > 1000 nM
40 | DTHFPCIKFKPRSKGWVC (N-terminal isovaleric acid; K(decanoic acid) at Lys 10; C-terminal amide) [Isovaleric acid-DTHFPCIKF-K(decanoic acid)-PRSKGWVC-NH2] | 22 nM
41 | [Ida]THFPCIKFEPRSKGWVCK(mysteric acid)-NH2 (disulfide 6-18 (inferred)) [Ida-THFPCIKFEPRSKGWVC-K(mysteric acid)-NH2] | 20 nM
42 | {Palmitoyl-PEG3″}-DTHFPCIKFGPRSKGWVCK-NH2 (disulfide 6-18 (inferred)) [Palm-PEG3-DTHFPCIKFGPRSKGWVCK-NH2] | > 1000 nM
